Tests used:
GST-rbFOX1 = target: T1, GST-rbFOX1 (UniProt Q9NWB1); assay: EMSA; conditions: apparent KD; EMSA: 50 mM Tris-HCl pH 7.0, 75 mM NaCl, 37.5 mM KCl, 0.75 mM MgCl2, 5.25 mM DTT, 0.1 mg/mL BSA, 0.1 mg/mL bulk tRNA, 0.4 U/uL RNAsin, 20 min on ice, 10 pM …
T1 sequence: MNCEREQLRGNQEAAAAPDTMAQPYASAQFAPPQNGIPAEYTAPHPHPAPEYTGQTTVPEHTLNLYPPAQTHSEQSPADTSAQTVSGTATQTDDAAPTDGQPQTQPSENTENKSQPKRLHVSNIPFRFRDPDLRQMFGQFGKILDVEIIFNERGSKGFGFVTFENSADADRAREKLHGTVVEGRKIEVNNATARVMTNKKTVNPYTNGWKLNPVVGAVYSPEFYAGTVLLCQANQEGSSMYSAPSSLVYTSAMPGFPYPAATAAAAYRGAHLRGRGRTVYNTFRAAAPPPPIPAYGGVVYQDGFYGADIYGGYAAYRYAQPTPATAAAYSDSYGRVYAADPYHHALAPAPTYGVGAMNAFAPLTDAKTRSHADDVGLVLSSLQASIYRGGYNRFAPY

rbFOX1 RRM = target: T2, rbFOX1 RRM (UniProt Q9NWB1 117-193); assay: NMR; 15N-1H HSQC; EMSA: 50 mM Tris-HCl pH 7.0, 75 mM NaCl, 37.5 mM KCl, 0.75 mM MgCl2, 5.25 mM DTT, 0.1 mg/mL BSA, 0.1 mg/mL bulk tRNA, 0.4 U/uL RNAsin, 20 min on ice, 10 pM RNA; gel at 4 C; conditions: protein: recombinant
T2 sequence: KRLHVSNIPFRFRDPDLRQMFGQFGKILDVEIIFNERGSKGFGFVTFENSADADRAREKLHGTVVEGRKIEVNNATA

For “GGGAGACCCAAGCUGGCUAGCGUUUAAACUUAAGCUUCCUGCCUGCCUGCCUGCCUGCCUGCCUGCCUGCCUGCCUGCCUGCCUGCCUGCCUGCCUGCCUGCCUGCCUGCCUGCCUGCCUGCCUGCCUGCCUGCCUGCCUGCCUGCCUGCCUGCCUGCCUGCCUGCCUGCCUGCCUGCCUGCCUGCCUGCCUGCCUGCCUGCCUGCCUGCCUGCCUGCCUGCCUGCCUGCCUGCCUGCCUGCCUGCCUGCCUGCCUGCCUGCCUGCCUGCCUGCCUGCCUGCCUGCCUGCCUGCCUGCCUGCCUGCCUGCCUGCCUGCCUGCCUGCCUGCCUGCCUGCCUGCCUGCCUGCCUGCCUGCCUGCCUGCCUGCCUGCCUGCCUGCCUGCCUGCCUGCCUGCCUGCCUGCCUGCCUGCCUGCCUGCCUGCCUGCCUGCCUGG [(CCUG)100]”, the Kd (GST-rbFOX1) was 3.2 nM.

Molecule “GGGAGACCCAAGCUGGCUAGCGUUUAAACUUAAGCUUCCUGCCUGCCUGCCUGCCUGCCUGCCUGCCUGCCUGCCUGCCUGCCUGCCUGCCUGCCUGCCUGCCUGCCUGCCUGCCUGCCUGCCUGCCUGCCUGCCUGCCUGCCUGCCUGCCUGCCUGG [(CCUG)30]” has a Kd (GST-rbFOX1) of 6.3 nM.

Molecule “GGGAGACCCAAGCUGGCUAGCGUUUAAACUUAAGCUUCCUGCCUGCCUGCCUGCCUGCCUGCCUGCCUGCCUGCCUGG [(CCUG)10]” has a Kd (GST-rbFOX1) of 9.7 nM.

B1: UGCAUGU (NMR) (ssRNA)
RNA: UGCAUGU
B1: binds (rbFOX1 RRM).

B2: UGCCUGC (NMR) (ssRNA)
RNA: UGCCUGC
B2: binds (rbFOX1 RRM).

From publication PMC5964235, “rbFOX1/MBNL1 competition for CCUG RNA repeats binding contributes to myotonic dystrophy type 1/type 2 differences”
